# Measurements from paper PMC4872103.
# B1: NS (dsDNA)
# DNA 1: GCGAATAAGCGAGAGTGAAACCG
# DNA 2: CGGTTTCACTCTCGCTTATTCGC
# B2: Alexa Fluor 488 end-labeled duplex (dsDNA)
# DNA 1: CAAGCGGAAGTGAG
# DNA 2: CTCACTTCCGCTTG
# B3: [5']AGC (dsDNA)
# DNA 1: GCGAATAAGCGGAAGTGAAACCG
# DNA 2: CGGTTTCACTTCCGCTTATTCGC
# Tests used:
# [1] = molecular target: T1, PU.1 ETS domain (PU.1ΔN167) (murine, UniProt P17433 167-272); assay: competition
# [2] = molecular target: T1, PU.1 ETS domain (PU.1ΔN167); assay: fluorescence anisotropy
# [3] = molecular target: T1, PU.1 ETS domain (PU.1ΔN167); assay: competition; remark: listed apart in the source
binder,measurement,setting,value
B1,binding result,[1],no binding
B2,binding result,[2],binds
B3,binding signal,[3],~1 Kd ratio to Cy3-[5']AGC (equal within experimental uncertainty)
